Several values for one entry are separate records, joined by “and”; a condition that tells them apart may be missing. Equal values may be shown once.
Assay: Phase 1 (1a/1b) pharmacokinetics: plasma concentrations after single IV dose (validated direct fluorescence reader assay), noncompartmental analysis
Type: in vivo, human
Details: for AUC0-24 hr / AUCall / AUClast / C10 m / Cmax / T1/2 / Tmax / Plasma Conc: Phase 1b; for AUC0-24 hr / AUCall / AUClast / C10 m / Cmax / T1/2 / Tmax: 1.2 mg/kg single IV; for Plasma Conc: 1.2 mg/kg
From the text: Phase 1 is a single-Principal Investigator, non-randomized, open-label, single-arm, cross-sectional study to evaluate the safety, PK profile, and imaging feasibility of Compound 1 in patients with solid cancers who require surgical excision. The main purpose of this study was to investigate the safety, PK, and feasibility of Compound 1 as an intra-operative optical imaging agent to detect tumors and metastatic lymph nodes in solid cancers. The study was intended to investigate the optimal dose range of Compound 1 for an adequate TBR and CNR of fluorescence obtained intraoperatively at 24 (±8) hours post dosing and with ex vivo specimens using ICG compatible cameras and imaging devices.
Phase 1 enrolled 30 patients with solid cancers (HNSCC, breast cancer, esophageal cancer, or colorectal cancer) who have a biopsy-confirmed diagnosis of respective tumor types and are scheduled to undergo surgical resection of the tumor. The study design included a standard 3+3 design for the dose-escalation portion (Phase 1a; N=18 maximum) followed by a dose-expansion portion (Phase 1b; N=15). All patients received a single I.V. dose of Compound 1, followed by routine surgery approximately 24 hours after infusion of Compound 1.
Phase 1a was a dose-finding study performed in 5 cohorts of 3 patients each. The dose levels evaluated were […], and 1.2 mg/kg, in this sequence. Inter-cohort dose escalation took place after the last patient in the previous cohort completed the Day 10 safety assessment. Safety, PK, and imaging feasibility were evaluated in both the Phase 1a and 1b portions of the study. Patient safety is assessed during the study and for up to 10 days post-dose.
Study design: Single Compound 1 IV dose was administered as a 1-5 minute IV infusion to patients in five cohorts (0.1, 0.3, 0.5, 0.8, and 1.2 mg/kg) with three patients per cohort in Phase 1a and 15 patients at a dose of 1.2 mg/kg in Phase 1b. Patient demographic information including tumor types is presented in Table 4 and 5 for Phase 1a and Table 5 for Phase 1b. Intertek Pharmaceutical Services (San Diego, Calif.) determined Compound 1 plasma concentrations using a validated direct fluorescence reader assay. Pacific BioDevelopment (Davis, Calif.) performed the PK analysis.
Sample collection: Blood samples were collected prior to infusion and at 10 minutes and 0.5, 1, 3, 8, 24, 48, 72, and 240 hours after infusion.
Analysis: Plasma concentration versus time profiles were generated for each patient. Pharmacokinetic parameters were estimated using Phoenix WinNonlin (version 8.0). According to SOP, concentrations reported as BQL were set to 0 except for the 0.5 h sample for subject #ON1102, which was set to LLOQ/2 ([…] value used in parameter calculations) and the 24 and 48 h samples.
If the coefficient of determination for the terminal slope estimation was less than 0.8, T1/2 was not reported (NR). AUC extrapolated to infinity is not reported for any data set because in all cases the % extrapolated AUC was greater than 20% and thus the AUCinf estimate would not be reliable. The concentration at 10 minutes, the first time point measured (C10m), was also reported for each patient.
The area under the plasma concentration versus time curves from dosing to the last time point with a measurable concentration (AUClast) was estimated by the linear trapezoid method. The last three or more time points were used to estimate the elimination rate constant (λz) which was used to estimate the terminal-phase half-life (T1/2) and AUC from zero to infinity (AUCINF) from the following equations: […]

## PEO90-140-b-P(DBA60-150-r-ICG0-3-r-AMA0-3) [Compound 1]
mean
  AUC0-24 hr: 638 µg·h/mL
  AUCall: 1840 µg·h/mL
  AUClast: 1180 µg·h/mL
  C10 m: 33.2 µg/mL
  Cmax: 34800 ng/mL
  T1/2: 46.4 h
  Tmax: 0.967 h
median
  AUC0-24 hr: 626 µg·h/mL
  AUCall: 1460 µg·h/mL
  AUClast: 1110 µg·h/mL
  C10 m: 32.1 µg/mL
  Cmax: 34100 ng/mL
  T1/2: 42.6 h
  Tmax: 1.00 h
0.170 hr, individual subject
  Plasma Conc: 27.5 µg/mL and 38.6 µg/mL and 30.3 µg/mL and 31.4 µg/mL and 25.5 µg/mL and 40.0 µg/mL and 47.6 µg/mL and 32.6 µg/mL and 31.3 µg/mL and 36.5 µg/mL and 32.1 µg/mL and 35.8 µg/mL and 33.0 µg/mL and 28.0 µg/mL and 28.5 µg/mL
0.170 hr, mean
  Plasma Conc: 33.2 µg/mL
0.170 hr, median
  Plasma Conc: 32.1 µg/mL
0.500 hr, individual subject
  Plasma Conc: 29.2 μg/mL and 35.2 μg/mL and 30.3 μg/mL and 28.5 μg/mL and 27.6 μg/mL and 40.0 μg/mL and 44.1 μg/mL and 32.0 μg/mL (2×) and 28.9 μg/mL and 34.5 μg/mL and 32.9 μg/mL and 36.4 μg/mL and 31.4 μg/mL and 29.8 μg/mL
0.500 hr, mean
  Plasma Conc: 32.9 µg/mL
0.500 hr, median
  Plasma Conc: 32.0 µg/mL
1.00 hr, individual subject
  Plasma Conc: 25.9 μg/mL and 33.0 μg/mL and 31.3 μg/mL (2×) and 32.6 μg/mL and 23.3 μg/mL and 42.2 μg/mL (2×) and 29.9 μg/mL (2×) and 37.7 μg/mL and 34.1 μg/mL and 35.4 μg/mL and 34.3 μg/mL and 26.8 μg/mL
1.00 hr, mean
  Plasma Conc: 32.7 µg/mL
1.00 hr, median
  Plasma Conc: 32.6 µg/mL
3.00 hr, individual subject
  Plasma Conc: 27.5 μg/mL and 34.3 μg/mL (2×) and 32.4 μg/mL and 31.3 μg/mL and 25.0 μg/mL and 40.1 μg/mL and 35.3 μg/mL and 30.3 μg/mL and 29.6 μg/mL and 31.5 μg/mL and 33.3 μg/mL and 31.2 μg/mL and 26.4 μg/mL and 25.4 μg/mL
3.00 hr, mean
  Plasma Conc: 31.2 µg/mL
3.00 hr, median
  Plasma Conc: 31.3 µg/mL
8.00 hr, individual subject
  Plasma Conc: 21.1 μg/mL and 28.3 μg/mL and 31.3 μg/mL and 26.1 μg/mL and 23.6 μg/mL (2×) and 35.8 μg/mL and 32.6 μg/mL and 25.0 μg/mL and 33.6 μg/mL and 27.9 μg/mL and 32.4 μg/mL and 27.8 μg/mL and 30.0 μg/mL and 24.5 μg/mL
8.00 hr, mean
  Plasma Conc: 28.2 µg/mL
8.00 hr, median
  Plasma Conc: 27.9 µg/mL
24.0 hr, individual subject
  Plasma Conc: 18.9 μg/mL and 29.8 μg/mL and 15.5 μg/mL and 20.2 μg/mL and 15.0 μg/mL and 23.9 μg/mL and 22.7 μg/mL and 19.5 μg/mL and 26.2 μg/mL and 20.3 μg/mL (2×) and 21.2 μg/mL and 18.6 μg/mL and 25.6 μg/mL and 21.0 μg/mL
24.0 hr, mean
  Plasma Conc: 21.2 µg/mL
24.0 hr, median
  Plasma Conc: 20.3 µg/mL
48.0 hr, individual subject
  Plasma Conc: BQL (BQL (<10 μg/mL), set = 0 for PK analysis) (2×) and 19.9 μg/mL and 18.5 μg/mL and 12.6 μg/mL and 12.0 μg/mL and 16.3 μg/mL and 13.3 μg/mL and 11.8 μg/mL and 15.0 μg/mL and 12.5 μg/mL and 10.2 μg/mL and 22.0 μg/mL and 12.8 μg/mL and 12.3 μg/mL
48.0 hr, mean
  Plasma Conc: 12.6 µg/mL
48.0 hr, median
  Plasma Conc: 12.6 µg/mL
72.0 hr, individual subject
  Plasma Conc: BQL (BQL (<10 μg/mL), set = 0 for PK analysis) (8×) and 18.7 μg/mL and 14.9 μg/mL and 10.4 μg/mL and 12.0 μg/mL and 12.8 μg/mL and 13.8 μg/mL and 17.3 μg/mL
72.0 hr, mean
  Plasma Conc: 6.66 µg/mL
72.0 hr, median
  Plasma Conc: 0.00 µg/mL
240 hr, individual subject
  Plasma Conc: BQL (BQL (<10 μg/mL), set = 0 for PK analysis)
240 hr, mean
  Plasma Conc: 0.00 µg/mL
240 hr, median
  Plasma Conc: 0.00 µg/mL
From 0.3 through 1.2 mg/kg
  C10 in relation to dose: appears to be dose proportional

— patent publication US20230025280A1, “PH RESPONSIVE COMPOSITIONS, FORMULATIONS, AND METHODS OF IMAGING A TUMOR” (ONCONANO MEDICINE, INC, priority 2019, published 2023)
